# Assay results reported in patent US20110200528A1 (GOVERNMENT OF THE UNITED STATES OF AMERICA, published 2011).
# OG = Oregon Green 488 (6-isomer carboxylic acid) on Lys side chain
# Tests used:
# [1] = target: aminopeptidase N isoform CD13 (APN/CD13) on HT-1080 human fibrosarcoma cells (human) (UniProt P15144); assay: flow cytometry on HT-1080 cells
# [2] = target: T1, aminopeptidase N isoform CD13 (APN/CD13) on HT-1080 human fibrosarcoma cells (human, UniProt P15144 2-967); assay: flow cytometry on CD13-positive HT-1080 cells
# T1 construct: whole, on cells; also called CD13/APN marker
# T1 sequence (P15144 2-967): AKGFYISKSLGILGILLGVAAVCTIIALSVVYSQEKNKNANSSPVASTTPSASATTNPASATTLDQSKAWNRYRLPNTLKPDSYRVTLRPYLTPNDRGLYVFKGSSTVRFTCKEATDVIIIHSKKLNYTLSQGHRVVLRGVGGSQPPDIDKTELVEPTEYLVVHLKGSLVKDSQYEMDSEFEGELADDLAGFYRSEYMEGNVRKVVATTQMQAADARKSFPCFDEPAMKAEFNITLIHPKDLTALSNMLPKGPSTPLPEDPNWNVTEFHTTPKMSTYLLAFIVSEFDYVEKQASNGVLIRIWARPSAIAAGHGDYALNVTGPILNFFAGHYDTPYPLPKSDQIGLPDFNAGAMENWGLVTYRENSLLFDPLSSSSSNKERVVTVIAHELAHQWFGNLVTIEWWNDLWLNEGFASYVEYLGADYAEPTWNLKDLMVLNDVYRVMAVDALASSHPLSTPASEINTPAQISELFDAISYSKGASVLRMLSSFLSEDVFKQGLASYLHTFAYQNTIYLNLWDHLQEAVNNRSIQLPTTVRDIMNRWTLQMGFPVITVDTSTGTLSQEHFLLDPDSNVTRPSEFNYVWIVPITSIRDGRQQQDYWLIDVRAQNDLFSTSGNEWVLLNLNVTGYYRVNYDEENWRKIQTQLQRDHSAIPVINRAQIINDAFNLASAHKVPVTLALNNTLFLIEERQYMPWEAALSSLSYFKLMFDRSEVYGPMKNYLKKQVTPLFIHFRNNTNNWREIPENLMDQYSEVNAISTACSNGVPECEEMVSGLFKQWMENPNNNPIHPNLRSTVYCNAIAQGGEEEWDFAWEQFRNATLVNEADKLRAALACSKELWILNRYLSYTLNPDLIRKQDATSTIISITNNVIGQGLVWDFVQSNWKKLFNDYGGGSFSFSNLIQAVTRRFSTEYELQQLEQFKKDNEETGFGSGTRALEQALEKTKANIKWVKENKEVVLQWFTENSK
# Description: To determine the half maximal effective concentration (EC₅₀) of cK(OG)NGRE (SEQ ID NO:2) and low temperature sensitive liposomes targeted with 5 mol % DSPE-PEG-cNGR, flow cytometry was performed according to standard procedures with HT-1080 cells. Approximately 94% of the HT-1080 cells were positive for the WM15 antibody indicating the presence of CD13 on these cells.
# [3] = target: aminopeptidase N isoform CD13 (APN/CD13) on HT-1080 human fibrosarcoma cells (human) (UniProt P15144); assay: flow cytometry on CD13-positive HT-1080 cells; reference: liposome with a linear peptide
# Chain of aminopeptidase N isoform CD13 (APN/CD13) on HT-1080 human fibrosarcoma cells (human) (P15144 2-967): as above
EC50 [2] [µM],Molecule,other results
,"Anti-CD13 monoclonal antibody (WM15, Alexa Fluor 488-conjugated)",percent of cells positive [1]: 94%
61,"cyclo(K(OG)NGRE) (also: Glu side chain coupled to Rink amide resin (side-chain amide), also called compound 6; NGR-OG agent) [cyclic cK(OG)NGRE (SEQ ID NO:2)]",
,KNGRE (cyclized cKNGRE; conjugated to DSPE-PEG2000CH2COOH (DSPE-PEG-cNGR conjugate 7) and built into a liposome (DPPC:MSPC:DSPE-PEG-cNGR 86.3:9.7:5)) [low temperature sensitive liposomes targeted with 5 mol % DSPE-PEG-cNGR],fold lower binding concentration against the liposome with a linear peptide [3]: 3.5 fold
220,KNGRE (also called linear NGR peptide; free linear NGR peptide) [linear form of an NGR-containing peptide (SEQ ID NO:4)],
